Laboratory results reported in patent publication US20140348865A1, “[…] ON AN HIV-1 V1V2 SITE-OF-VULNERABILITY” (The United States of America, as represented by the …, priority 2011, published 2014).

Experiments:
[1] = target: Env of HIV-1 strain 398 (pseudovirus) (HIV-1)
[2] = target: Env of HIV-1 strain QH209 (pseudovirus) (HIV-1)
[3] = target: Env of HIV-1 strain A03349M1 (pseudovirus) (HIV-1)
[4] = target: Env of HIV-1 strain 6405 (pseudovirus) (HIV-1)
[5] = target: Env of HIV-1 strain X2088 (pseudovirus) (HIV-1)

For monoclonal antibody PG9, which neutralization IC80 (R3265.c6 (HIV-1)) is on record?
Its neutralization IC80 is 9.8 µg/mL.

What about the neutralization IC80 (CNE3 (HIV-1)) of the same substance?
The neutralization IC80 was 1.12 µg/mL.

And the neutralization IC80 (KER2018.11 (HIV-1))?
The neutralization IC80 was 0.004 µg/mL.

And the neutralization IC80 (3718.v3.c11 (HIV-1))?
Its neutralization IC80 is 0.202 µg/mL.

And the neutralization IC80 (3415.v1.c1 (HIV-1))?
The neutralization IC80 was 0.77 µg/mL.

And the neutralization IC80 (0330.v4.c3 (HIV-1))?
Its neutralization IC80 is 0.083 µg/mL.

What about the neutralization IC80 (Q168.a2 (HIV-1)) of the same substance?
The neutralization IC80 was 0.342 µg/mL.

What about the neutralization IC80 (MI369.A5 (HIV-1)) of the same substance?
The neutralization IC80 was 0.364 µg/mL.

And the neutralization IC80 (CNE59 (HIV-1))?
The neutralization IC80 was 0.465 µg/mL.

And the neutralization IC80 (TH966.8 (HIV-1))?
The neutralization IC80 was 0.183 µg/mL.

And the neutralization IC80 (KER2008.12 (HIV-1))?
Its neutralization IC80 is 0.085 µg/mL.

And the neutralization IC80 (Q842.d12 (HIV-1))?
Its neutralization IC80 is 0.021 µg/mL.

What about the neutralization IC80 (UG037.8 (HIV-1)) of the same substance?
The neutralization IC80 was 0.085 µg/mL.

And the neutralization IC80 (620345.c1 (HIV-1))?
The neutralization IC80 was over 50 µg/mL.

And the neutralization IC80 (R1166.c1 (HIV-1))?
The neutralization IC80 was 9.24 µg/mL.

And the neutralization IC80 (0260.v5.c36 (HIV-1))?
Its neutralization IC80 is 22.8 µg/mL.

What about the neutralization IC80 (C3347.c11 (HIV-1)) of the same substance?
Its neutralization IC80 is 0.168 µg/mL.

What about the neutralization IC80 (R2184.c4 (HIV-1)) of the same substance?
The neutralization IC80 was 1.75 µg/mL.

What about the neutralization IC80 (6545_V4_C1 (HIV-1)) of the same substance?
Its neutralization IC80 is 0.315 µg/mL.

And the neutralization IC80 (BS208.B1 (HIV-1))?
The neutralization IC80 was 0.098 µg/mL.

And the neutralization IC80 (CNE55 (HIV-1))?
Its neutralization IC80 is 1.32 µg/mL.

What about the neutralization IC80 (MB539.2B7 (HIV-1)) of the same substance?
Its neutralization IC80 is 0.383 µg/mL.

What about the neutralization IC80 (0815_V3_C3 (HIV-1)) of the same substance?
The neutralization IC80 was over 50 µg/mL.

And the neutralization IC80 (3468_V1_C12 (HIV-1))?
Its neutralization IC80 is over 50 µg/mL.

And the neutralization IC80 (M02138 (HIV-1))?
The neutralization IC80 was 1.36 µg/mL.

And the neutralization IC80 (Q769.h5 (HIV-1))?
The neutralization IC80 was 0.007 µg/mL.

What about the neutralization IC80 (3589_V1_C4 (HIV-1)) of the same substance?
The neutralization IC80 was 0.102 µg/mL.

What about the neutralization IC80 (Q461.e2 (HIV-1)) of the same substance?
Its neutralization IC80 is 29.9 µg/mL.

And the neutralization IC80 (Q259.17 (HIV-1))?
The neutralization IC80 was 0.229 µg/mL.

What about the neutralization IC80 (CNE5 (HIV-1)) of the same substance?
Its neutralization IC80 is under 0.023 µg/mL.

And the neutralization IC80 (RW020.2 (HIV-1))?
The neutralization IC80 was 0.622 µg/mL.

What about the neutralization IC80 (BI369.9A (HIV-1)) of the same substance?
The neutralization IC80 was 0.151 µg/mL.

And the neutralization IC80 (C1080.c3 (HIV-1))?
Its neutralization IC80 is 0.011 µg/mL.

What about the neutralization IC80 (TH976.17 (HIV-1)) of the same substance?
The neutralization IC80 was over 50 µg/mL.

What about the neutralization IC80 (C4118.09 (HIV-1)) of the same substance?
The neutralization IC80 was 0.205 µg/mL.

What about the neutralization IC80 (Q769.d22 (HIV-1)) of the same substance?
The neutralization IC80 was 0.033 µg/mL.

What about the neutralization IC80 (BB201.B42 (HIV-1)) of the same substance?
The neutralization IC80 was 0.046 µg/mL.

What about the neutralization IC80 (6540.v4.c1 (HIV-1)) of the same substance?
The neutralization IC80 was 0.213 µg/mL.

What about the neutralization IC80 [1] of the same substance?
Its neutralization IC80 is over 50 µg/mL.

And the neutralization IC80 (MB201.A1 (HIV-1))?
Its neutralization IC80 is 0.193 µg/mL.

And the neutralization IC80 (MS208.A1 (HIV-1))?
The neutralization IC80 was 0.589 µg/mL.

What about the neutralization IC80 (KNH1209.18 (HIV-1)) of the same substance?
The neutralization IC80 was over 50 µg/mL.

And the neutralization IC80 [2]?
Its neutralization IC80 is over 50 µg/mL.

And the neutralization IC80 (Q23.17 (HIV-1))?
Its neutralization IC80 is 0.02 µg/mL.

And the neutralization IC80 (6095_V1_C10 (HIV-1))?
Its neutralization IC80 is 2.25 µg/mL.

And the neutralization IC80 (NKU3006.ec1 (HIV-1))?
The neutralization IC80 was over 50 µg/mL.

And the neutralization IC80 (3337_V2_C6 (HIV-1))?
The neutralization IC80 was over 50 µg/mL.

What about the neutralization IC80 (SIVmac251.30.SG3 (SIV)) of the same substance?
The neutralization IC80 was over 50 µg/mL.

And the neutralization IC80 (UG021.16 (HIV-1))?
The neutralization IC80 was over 50 µg/mL.

What about the neutralization IC80 [3] of the same substance?
Its neutralization IC80 is over 50 µg/mL.

What about the neutralization IC80 (3016.v5.c45 (HIV-1)) of the same substance?
Its neutralization IC80 is over 50 µg/mL.

And the neutralization IC80 (57128.vrc15 (HIV-1))?
The neutralization IC80 was 0.665 µg/mL.

What about the neutralization IC80 (SVA.MLV) of the same substance?
Its neutralization IC80 is over 50 µg/mL.

What about the neutralization IC80 [4] of the same substance?
The neutralization IC80 was over 50 µg/mL.

What about the neutralization IC80 (ZM249.1 (HIV-1)) of the same substance?
Its neutralization IC80 is 0.408 µg/mL.

What about the neutralization IC80 (3817.v2.c59 (HIV-1)) of the same substance?
Its neutralization IC80 is 0.028 µg/mL.

And the neutralization IC80 (ZM55.28a (HIV-1))?
Its neutralization IC80 is 11.5 µg/mL.

And the neutralization IC80 [5]?
Its neutralization IC80 is over 50 µg/mL.

And the neutralization IC80 (3326_V4_C3 (HIV-1))?
Its neutralization IC80 is 0.111 µg/mL.

What about the neutralization IC80 (ZM53.12 (HIV-1)) of the same substance?
The neutralization IC80 was 0.17 µg/mL.

And the neutralization IC80 (ZM233.6 (HIV-1))?
Its neutralization IC80 is under 0.023 µg/mL.

And the neutralization IC80 (231965.c1 (HIV-1))?
Its neutralization IC80 is over 50 µg/mL.

What about the neutralization IC80 (UG024.2 (HIV-1)) of the same substance?
Its neutralization IC80 is over 50 µg/mL.

What does the source list for monoclonal antibody PG16?
neutralization IC80 (R3265.c6 (HIV-1)): 0.691 µg/mL; neutralization IC80 (CNE3 (HIV-1)): > 50 µg/mL; neutralization IC80 (KER2018.11 (HIV-1)): 0.002 µg/mL; neutralization IC80 (3718.v3.c11 (HIV-1)): 0.102 µg/mL; neutralization IC80 (3415.v1.c1 (HIV-1)): 0.342 µg/mL; neutralization IC80 (0330.v4.c3 (HIV-1)): 0.027 µg/mL; neutralization IC80 (Q168.a2 (HIV-1)): 0.106 µg/mL; neutralization IC80 (MI369.A5 (HIV-1)): 0.082 µg/mL; neutralization IC80 (CNE59 (HIV-1)): > 50 µg/mL; neutralization IC80 (TH966.8 (HIV-1)): 0.03 µg/mL; neutralization IC80 (KER2008.12 (HIV-1)): 0.046 µg/mL; neutralization IC80 (Q842.d12 (HIV-1)): 0.006 µg/mL; neutralization IC80 (UG037.8 (HIV-1)): 0.004 µg/mL; neutralization IC80 (620345.c1 (HIV-1)): > 50 µg/mL; neutralization IC80 (R1166.c1 (HIV-1)): 12.5 µg/mL; neutralization IC80 (0260.v5.c36 (HIV-1)): > 50 µg/mL; neutralization IC80 (C3347.c11 (HIV-1)): 0.031 µg/mL; neutralization IC80 (R2184.c4 (HIV-1)): > 50 µg/mL; neutralization IC80 (6545_V4_C1 (HIV-1)): 0.562 µg/mL; neutralization IC80 (BS208.B1 (HIV-1)): 0.012 µg/mL; neutralization IC80 (CNE55 (HIV-1)): > 50 µg/mL; neutralization IC80 (MB539.2B7 (HIV-1)): 0.205 µg/mL; neutralization IC80 (0815_V3_C3 (HIV-1)): > 50 µg/mL; neutralization IC80 (3468_V1_C12 (HIV-1)): > 50 µg/mL; neutralization IC80 (M02138 (HIV-1)): 0.81 µg/mL; neutralization IC80 (Q769.h5 (HIV-1)): 0.02 µg/mL; neutralization IC80 (3589_V1_C4 (HIV-1)): 37.8 µg/mL; neutralization IC80 (Q461.e2 (HIV-1)): > 50 µg/mL; neutralization IC80 (Q259.17 (HIV-1)): 0.717 µg/mL; neutralization IC80 (CNE5 (HIV-1)): < 0.023 µg/mL; neutralization IC80 (RW020.2 (HIV-1)): 3.51 µg/mL; neutralization IC80 (BI369.9A (HIV-1)): 0.037 µg/mL; neutralization IC80 (C1080.c3 (HIV-1)): 0.004 µg/mL; neutralization IC80 (TH976.17 (HIV-1)): > 50 µg/mL; neutralization IC80 (C4118.09 (HIV-1)): 0.24 µg/mL; neutralization IC80 (Q769.d22 (HIV-1)): 11 µg/mL; neutralization IC80 (BB201.B42 (HIV-1)): 0.008 µg/mL; neutralization IC80 (6540.v4.c1 (HIV-1)): 0.154 µg/mL; neutralization IC80 [1]: > 50 µg/mL; neutralization IC80 (MB201.A1 (HIV-1)): 0.019 µg/mL; neutralization IC80 (MS208.A1 (HIV-1)): 31.8 µg/mL; neutralization IC80 (KNH1209.18 (HIV-1)): > 50 µg/mL; neutralization IC80 [2]: > 50 µg/mL; neutralization IC80 (Q23.17 (HIV-1)): 0.004 µg/mL; neutralization IC80 (6095_V1_C10 (HIV-1)): 0.443 µg/mL; neutralization IC80 (NKU3006.ec1 (HIV-1)): > 50 µg/mL; neutralization IC80 (3337_V2_C6 (HIV-1)): > 50 µg/mL; neutralization IC80 (SIVmac251.30.SG3 (SIV)): > 50 µg/mL; neutralization IC80 (UG021.16 (HIV-1)): > 50 µg/mL; neutralization IC80 [3]: > 50 µg/mL; neutralization IC80 (3016.v5.c45 (HIV-1)): > 50 µg/mL; neutralization IC80 (57128.vrc15 (HIV-1)): > 50 µg/mL; neutralization IC80 (SVA.MLV): > 50 µg/mL; neutralization IC80 [4]: > 50 µg/mL; neutralization IC80 (ZM249.1 (HIV-1)): 9.23 µg/mL; neutralization IC80 (3817.v2.c59 (HIV-1)): 0.051 µg/mL; neutralization IC80 (ZM55.28a (HIV-1)): > 50 µg/mL; neutralization IC80 [5]: > 50 µg/mL; neutralization IC80 (3326_V4_C3 (HIV-1)): 0.221 µg/mL; neutralization IC80 (ZM53.12 (HIV-1)): 0.103 µg/mL; neutralization IC80 (ZM233.6 (HIV-1)): < 0.023 µg/mL; neutralization IC80 (231965.c1 (HIV-1)): > 50 µg/mL; neutralization IC80 (UG024.2 (HIV-1)): > 50 µg/mL
